Measured values from paper PMC11775670.

Target: PksD (Bacillus subtilis str. 168) (UniProt O34877)
Settings: scale: % relative to the acetyl-PksJ ACP4 domain

UniProt O34877, sequence (O34877 whole entry, the tested form may be a part): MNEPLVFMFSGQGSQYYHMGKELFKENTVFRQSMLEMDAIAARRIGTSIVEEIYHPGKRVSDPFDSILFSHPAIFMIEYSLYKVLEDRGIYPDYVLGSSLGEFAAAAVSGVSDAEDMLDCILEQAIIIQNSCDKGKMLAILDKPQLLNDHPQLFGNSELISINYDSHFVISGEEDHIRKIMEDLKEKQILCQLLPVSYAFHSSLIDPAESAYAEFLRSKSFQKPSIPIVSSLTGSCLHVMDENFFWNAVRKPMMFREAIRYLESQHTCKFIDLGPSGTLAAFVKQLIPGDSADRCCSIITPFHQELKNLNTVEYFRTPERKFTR

Substance | acetyl group hydrolysis by PksD relative to the acetyl-PksJ ACP4 domain, intact protein-MS
acetyl-loaded BlmVIII ACP7 domain (domain or fragment) | 12
acetyl-loaded GbnD5 ACP12 domain (domain or fragment) | 41
acetyl-loaded IcoA PCP2 domain (domain or fragment) | 7
